Results from US20140128287.

Molecular target: GEV (Gal4 DBD - estrogen receptor - VP16) (synthetic construct) (UniProt P04386)
Test: cell_activity
Details: yeast reporter with three pairs of GEV sites, 15 min after beta-estradiol

Sequence of GEV (Gal4 DBD - estrogen receptor - VP16) (synthetic construct) (P04386 1-93): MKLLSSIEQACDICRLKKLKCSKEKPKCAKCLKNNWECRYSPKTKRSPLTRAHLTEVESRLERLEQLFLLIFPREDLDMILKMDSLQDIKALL

## CGGNNNNNNNNNNNCCG (double strand) [GAL1 promoter UASgal (Gal4 consensus site)]
  activity (fold induction of GFP transcripts): > 50
